Tests used:
[1] = molecular target: T1, GST-Fob1 (prep also contains free Fob1) (Saccharomyces cerevisiae) (UniProt O13329); experiment: competition; conditions: 10 mM Tris pH 7.5, 1 mM EDTA, 0.1 M KCl, 0.1 mM DTT, 5% glycerol, 20 ul, 30 C 30 min; 6% PAGE in 0.5X TBE
T1 sequence: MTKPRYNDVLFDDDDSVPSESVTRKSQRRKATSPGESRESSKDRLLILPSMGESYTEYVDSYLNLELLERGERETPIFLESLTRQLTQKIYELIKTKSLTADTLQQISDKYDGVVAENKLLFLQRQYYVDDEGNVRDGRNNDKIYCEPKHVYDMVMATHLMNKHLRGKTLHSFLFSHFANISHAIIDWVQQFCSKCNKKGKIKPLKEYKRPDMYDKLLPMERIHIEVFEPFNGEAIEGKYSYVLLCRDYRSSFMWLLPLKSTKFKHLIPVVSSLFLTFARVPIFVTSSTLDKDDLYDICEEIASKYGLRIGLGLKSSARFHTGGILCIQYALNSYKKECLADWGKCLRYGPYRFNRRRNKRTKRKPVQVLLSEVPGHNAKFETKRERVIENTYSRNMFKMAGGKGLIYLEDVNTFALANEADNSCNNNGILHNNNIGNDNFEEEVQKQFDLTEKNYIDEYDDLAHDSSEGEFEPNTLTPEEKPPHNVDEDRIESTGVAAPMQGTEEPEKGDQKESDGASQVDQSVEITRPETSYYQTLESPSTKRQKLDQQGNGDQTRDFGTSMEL

[2] = molecular target: T1, GST-Fob1 (prep also contains free Fob1) (Saccharomyces cerevisiae); experiment: EMSA; conditions: 10 mM Tris pH 7.5, 1 mM EDTA, 0.1 M KCl, 0.1 mM DTT, 5% glycerol, 20 ul, 30 C 30 min; 6% PAGE in 0.5X TBE

TGCTAGTGTTTGCAAGATGGTGCTTTTTTTTCTTTAGATTGCCACGTTTCTGCTCCT (double strand) [RDT1 promoter probe (57 bp)]
binding [1]: binds
binding [2]: binds

— article PMC10132618
